In the nanobody polyreactivity screen of Harvey et al. (2022):

Assay: yeast display, Sf9 membrane polyspecificity reagent, FACS + sequencing; frameworks hold sequencing errors
How it was run: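 Using colony PCR, genes from sorted yeast display clones were amplified, then sequenced on MiSeq at 2 × 250 and filtered by CDR length. The clones had been stained with 10% biotinylated, detergent-solubilized Sf9 membrane reagent for 1 hour at 4 °C and sorted by FACS into low and high (top ~1%) gates on anti-HA and streptavidin fluorescence. Polyreactivity labels come from the gate of origin.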

Sequence | polyreactivity (PSR sort gate)
LVQLQESGGGLVQAGGSLRLSCAASGTISPGGYMGWYRQAPGQERELVASINVGGSTNYADSVKGRFTISRDNAKNPVDLQMNSLKPEDNAVYYCAVWGRNRLQLSYWGQGTQVTVSS | low polyreactivity
QVQLVESGGGLVQAGGSLRLSCAASGITFSYNAMGWSRQAPGKERELVAAISSNSDSTYYADSVKGRFTISRDNAKNTVYLQMNSLKPEDTAVYYCAADSPDDPDYSGFYYWGQGSQVTVSS | low polyreactivity
QVQLVESGGGLVQAGGSLRLSCAASGSIFRGNAMGWYRQAPGKERELVAAISKSGGSTYYADSVKGRFTISRDNAKNTVNLQMNSLKPEDTAVYYCAARTTYLYGMYYWGQGTQVTVSS | low polyreactivity
QVQLVESGGGLVQAGGSLRLSCAASGITYGYNTMGWYRQAPGKERELVADISRSGGRTYYADSVKARFTISRDNAKNTVYLQMNSLKPEDTAVYYCAAVSNSGHYYYWGQGTQVTVSS | high polyreactivity
QVRLIESGGGLVQAGGSLRLSCAASGFTFFGNAMGWYRQAPGKERELVASISGSGTRTYYADSVKGRFTISRDNAKNTVYLQMNSLKPEDTAVYYCAARGSYSHGINYYWGQGTQVTVSS | high polyreactivity
QVQLVESGGGLVQAGGSLRLSCAASGRTFYEYAMGWYRQAPGKERELVAAITRSGGSTYYADSVKGRFTISRDNAKNTVYLQMNSLKPEDTAVYYCAAYRLQYRVRYYTAYDYWGQGTQVTVSS | high polyreactivity
QVQLVESGGGLVHAGGSLRLSCAASGRILGKYANGWYRQAPGKERELVAAINWRGGRTYADSVKGRFTISRDNSKNNVYLQMNSLKPEDTAVYYCAAVWQSPRPGYGYWGQGTQVTVSS | high polyreactivity
QVQLVESGGGLVQAGGSLRLSCAASGSIFIFNAMGWYRQAPGKEREFVARIRRDSSTNYADSVKGRFTISRDNAKNTVYLQMNSLKPEDTAVYYCAAKRFYRRVELNSWGQGTQVTVSS | low polyreactivity
QVQLVESGGGLVQAGGSLRLSCAASGSIFRRYAMGWYRQAPGKERELVAAISFSGYSTYYADSVKGRFTISRDNAKNTVYLQMNSLKPEDTAVYYCAARSQRHKLSRDYNYWGQGTQVTVSS | high polyreactivity
QVQLVESGGGLVQAGGSLRLSCAASGRSFLYYAMGWYRQAPGKERELVAAIRRGSSTYYADSVKGRFTISRDNAKNTVYLQMNSLKPEDTAVYYCAARGRYRIGPGRYGKRYAYWGQGTQVTVSS | high polyreactivity
QVQLVESGGGLVQAGGSLRLSCAASGFTFRRYAMGWYRQAPGKERELVAAITWSGGSTYYADSVKGRFTISRDNAKNTVYLQMNSLKPEDTAVYYCNKAYSPLYFSYNYWGQGTQVTVSS | high polyreactivity
QVQLVESGGGLVQAGGSLRLSCAASGFIFGTYAMGWYRQAPGKERELVAAISQSGGRTYYADSVKGRFTISRDNAKNTVYLQMNSLKPEDTAVYYCAAYRYVRYDYWGQGTQVTVSS | high polyreactivity
QVQLVESGGGLVQAGGSLRLSCAASGFIFTDNAMGWYRQAPGKERELVAAISKNGGSTYYADSVKGRFTISRDNAKNTVYLQMNSLKPEDTAVYYCNTRRKNFDKSSQVEYWGQGTQVTVSS | high polyreactivity
QVQLVESGGGLVQAGGSLRLSCAASGRIFGSYAMGWYRQAPGKERELVAAINWRGGSTFYADSVKGRFTISRDNAKNTVYLQMNSLKPEDTAVYYCARRGYRQSGDYWGQGTEVTVSS | low polyreactivity
QVQLVESGGGLVQAGGSLRLSCAASGYIFYYNGMGWYRQAPGKERELVAVISRRGGSTYYADSVKGRFTISRDNAKNTVYLQMNSLKPEDTAVYYCNARARSSRTYKYDYWGQGTQVTVSS | high polyreactivity
QVQLVESGGGLVQAGGSLRLSCAASGRTLFYYTMGWYRQAPGKVRELVAAITTGGRTYYADSVKGRFTISRDNAKNTVYLQMNSLNPEDTAVYYCAAHTYYYPVGFNYWGPGTQVTVSS | low polyreactivity
QVQLVESGGGLVQAGGSLRLSCAASGSIFNRNAMGWYRQAPGKERELVAAISNSGARTYYADSVKGRFTISRDNAKNTVYLQMNSLKPEDTAVYYCNDVRRRSKLYNYWGQGTQVTVSS | high polyreactivity
QVQLVESGGGLVQAGGSLRLSCAASGRIFGYYAIGWYRQAPGKERELVAAITINGGRTYYADSVKGRFTISRDNAKNTVYLQMNSLKPEDTAVYYCTATSRYNRLGYWGQGTQVTVSS | high polyreactivity
QVQLVESGGGLVQAGGSLRLSCAASGRIFRTYTMGWYRQAPGKERELVAAITSGSSTYYADSVKGRFTISRDNAKNTVYLQMHSLKPEDTAVYYCATEWSIGRHLYTYNYWGPGTQVTVSS | high polyreactivity
QVQLVESGGGLVQAGGSLRLSCAASGRIFINYAMGWYRQAPGKERELVAAITTNGGSTYYADSVKGRFTISRDNAKYTVYLQMNSLKPEDTAVYYCAARRRYKMDYWGQGTQVTVSS | high polyreactivity
QVQLVESGGGLVQAGGSLRLSSAASGSTFVVNAMGWYRQAPGKERELVAAITQSGGSTFYADSVKGRFTISRDNAKNTVYLQMNSLKPEDTAVYYWGQGTQLTVSS | low polyreactivity
QVQLVESGGGLVQAGGSLRLSCAASGRTFLTNTMGWYRQAPGQEREWVATISNGGRTNYADSVKGRFTISRDNAKNTVYLQMNSLKPEDTAVYYCAKDYRAYHPHWYGSTFGWGQGTQVTVSS | high polyreactivity
